According to patent publication US20050136043:

How the values were obtained:
GST-Smad3deltaMH1 = GST-Smad3deltaMH1 (UniProt P84022)
GST-Smad1 = GST-Smad1 (UniProt Q15797)
GST-Smad2 (full-length) = GST-Smad2 (full-length) (UniProt Q15796)
Chain of GST-Smad2 (full-length) (Q15796 whole entry): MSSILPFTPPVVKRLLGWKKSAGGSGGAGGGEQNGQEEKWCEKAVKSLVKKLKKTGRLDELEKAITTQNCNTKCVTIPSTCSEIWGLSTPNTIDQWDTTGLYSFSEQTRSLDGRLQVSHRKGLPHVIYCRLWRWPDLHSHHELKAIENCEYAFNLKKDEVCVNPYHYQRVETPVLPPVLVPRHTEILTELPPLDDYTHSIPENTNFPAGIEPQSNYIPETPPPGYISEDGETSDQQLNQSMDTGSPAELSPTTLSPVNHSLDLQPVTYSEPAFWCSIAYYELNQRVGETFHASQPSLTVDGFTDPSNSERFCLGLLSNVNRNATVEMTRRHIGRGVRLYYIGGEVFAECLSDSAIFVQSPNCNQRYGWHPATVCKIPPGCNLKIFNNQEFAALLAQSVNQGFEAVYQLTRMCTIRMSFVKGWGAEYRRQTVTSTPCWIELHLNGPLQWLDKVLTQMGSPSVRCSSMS

Chain of GST-Smad3deltaMH1 (P84022 137-425, stated change not applied): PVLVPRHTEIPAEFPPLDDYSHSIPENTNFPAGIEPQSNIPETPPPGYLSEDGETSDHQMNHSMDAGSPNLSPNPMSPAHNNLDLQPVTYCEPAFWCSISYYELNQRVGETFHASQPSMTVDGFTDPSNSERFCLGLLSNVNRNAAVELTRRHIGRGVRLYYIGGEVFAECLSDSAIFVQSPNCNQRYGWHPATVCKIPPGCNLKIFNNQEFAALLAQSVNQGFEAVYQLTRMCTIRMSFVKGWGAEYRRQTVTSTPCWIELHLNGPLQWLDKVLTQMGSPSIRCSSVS
Chain of GST-Smad1 (Q15797 whole entry): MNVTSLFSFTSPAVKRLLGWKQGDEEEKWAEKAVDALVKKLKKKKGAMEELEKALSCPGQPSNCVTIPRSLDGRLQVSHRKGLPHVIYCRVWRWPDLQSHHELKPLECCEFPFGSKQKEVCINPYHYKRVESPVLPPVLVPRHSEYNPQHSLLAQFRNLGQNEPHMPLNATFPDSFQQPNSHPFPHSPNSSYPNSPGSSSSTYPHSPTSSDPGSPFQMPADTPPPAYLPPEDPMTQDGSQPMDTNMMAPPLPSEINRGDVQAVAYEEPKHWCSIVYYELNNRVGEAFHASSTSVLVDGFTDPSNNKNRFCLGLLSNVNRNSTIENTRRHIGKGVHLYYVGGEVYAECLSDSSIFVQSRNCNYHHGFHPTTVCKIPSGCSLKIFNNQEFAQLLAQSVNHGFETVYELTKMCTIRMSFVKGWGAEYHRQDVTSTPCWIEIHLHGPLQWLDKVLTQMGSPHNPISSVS

Substance: GST-TβR-I (GST fused to the cytoplasmic part, residues 148-503, of constitutively active TβR-I T204D, FLAG-tagged at the C-terminus)
- phosphorylation of substrate in in vitro kinase assay (32P, SDS-PAGE, phosphorimager) (GST-Smad3deltaMH1): Purified GST-TβR-I kinase efficiently phosphorylated itself, as well as the C-terminal part of Smad3 and full-length GST-Smad2 as exogenous substrates
- phosphorylation of substrate in in vitro kinase assay (32P, SDS-PAGE, phosphorimager) (GST-Smad1): no phosphorylation of GST-Smad1 was observed
- phosphorylation of substrate in in vitro kinase assay (32P, SDS-PAGE, phosphorimager) (GST-Smad2 (full-length)): Purified GST-TβR-I kinase efficiently phosphorylated itself, as well as the C-terminal part of Smad3 and full-length GST-Smad2 as exogenous substrates
